Key:
[1] = target: α2 chain of mini-procollagen I (human); assay: co-purification by the tag of one chain, SDS-PAGE of the BMP-1 cleavage products
[2] = target: human PCPE-1 (procollagen C-proteinase enhancer protein-1), no tag (human) (UniProt Q15113); assay: SPR
[3] = target: homotrimeric mini-procollagen II (human); assay: SDS-PAGE in non-reducing against reducing
[4] = target: mini-procollagen III (human); assay: SDS-PAGE in non-reducing against reducing

UniProt Q15113, sequence (Q15113 26-449): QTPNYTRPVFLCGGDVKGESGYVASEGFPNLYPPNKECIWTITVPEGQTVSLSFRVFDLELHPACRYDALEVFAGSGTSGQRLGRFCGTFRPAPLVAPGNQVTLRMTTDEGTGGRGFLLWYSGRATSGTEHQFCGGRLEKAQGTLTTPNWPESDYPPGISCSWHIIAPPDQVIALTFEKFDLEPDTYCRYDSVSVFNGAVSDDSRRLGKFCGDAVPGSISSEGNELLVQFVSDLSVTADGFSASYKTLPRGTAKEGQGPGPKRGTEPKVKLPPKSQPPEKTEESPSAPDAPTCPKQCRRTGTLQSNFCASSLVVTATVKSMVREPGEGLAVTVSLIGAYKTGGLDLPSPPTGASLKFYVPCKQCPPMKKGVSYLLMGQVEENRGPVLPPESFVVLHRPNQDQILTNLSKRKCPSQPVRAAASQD

Substance: α1 chain of mini-procollagen I (domain or fragment)
- stoichiometry N (α1 chains for one α2 chain) [1]: 2

Substance: heterotrimeric mini-procollagen I (complex)
- KD1 (heterogeneous ligand model) [2]: < 15 nM
- KD2 (heterogeneous ligand model) [2]: < 15 nM

Substance: homotrimeric mini-procollagen II (domain or fragment)
- KD1 (heterogeneous ligand model) [2]: < 15 nM
- KD2 (heterogeneous ligand model) [2]: < 15 nM
- stoichiometry N [3]: 3

Substance: mini-procollagen III (domain or fragment)
- KD1 (heterogeneous ligand model) [2]: < 15 nM
- KD2 (heterogeneous ligand model) [2]: < 15 nM
- stoichiometry N [4]: 3

Reference: article doi:10.1101/2022.11.10.516045
